{"source": "patent US12698507B2", "about": "“Methods and compositions for conferring and/or enhancing herbicide tolerance using protoporphyrinogen IX oxidase of various cyanobacteria or variant thereof” (FarmHannong Co., Ltd., priority 2019, dated 2026)", "molecules": {"B1": {"name": "CyPPO19 A167C + L327T + F360I: variant of CyPPO19 PPO protein (SEQ ID NO: 1) (protein)", "chain": "MSEVDVAIVGGGLSGLSLAWRLQQSAPQYSVVLLEASDRLGGNITTQTAEGFVWELGPNSFAPTPALLQLIAEVGLQSELIRGDRHLPRYIYWRGQLYPLQPTRPLALATSNLLSPWGKVRAALGALGFVPPYLGSGDESVNSFFRRHLGQEVAERLVAPFVSGVYCGDPQQLSAAAAFRRIAQLEKLGGGLIAGALHLRRQQAPKPKPPTSVQMRPGELGSFKEGLAALPRAIAQQLKAPIHLQTPVQEITPDPKGGYLLRSGEQTWRARSVVLATPAYQTAELVAPFQPAIARVLATIPYPTVACVVLAYPAGLGRSVRPGFGVTIPRSQGIRTLGTIWSSCLFPQRTPAGWQVFTSIIGGATDPDLASLSEEAIVQQVQQDLNRLLDLPAAKARLLGMKVWRRAIPQYMVGYPEQWQQVTHALSQTPGLFLCSNYAEGVALGDRVEHGNRTAAAVAAYLSGGQP", "modifications": "Synthetic_PPO of Thermosynechococcus elongatus PKUAC-SCTE542 (comprising GenBank No. CP032152.1)"}, "B2": {"name": "CyPPO19 A167I + I408W + F360V: variant of CyPPO19 PPO protein (SEQ ID NO: 1) (protein)", "chain": "B1 chain with C167I, T327L, I360V, I408W", "modifications": "Synthetic_PPO of Thermosynechococcus elongatus PKUAC-SCTE542 (comprising GenBank No. CP032152.1)"}, "B3": {"name": "CyPPO19 A167I + L327T + F360V: variant of CyPPO19 PPO protein (SEQ ID NO: 1) (protein)", "chain": "B1 chain with C167I, I360V", "modifications": "Synthetic_PPO of Thermosynechococcus elongatus PKUAC-SCTE542 (comprising GenBank No. CP032152.1)"}, "B4": {"name": "CyPPO19 A167L + L327T + F360M: variant of CyPPO19 PPO protein (SEQ ID NO: 1) (protein)", "chain": "B1 chain with C167L, I360M", "modifications": "Synthetic_PPO of Thermosynechococcus elongatus PKUAC-SCTE542 (comprising GenBank No. CP032152.1)"}, "B5": {"name": "CyPPO19 A167C + I408W + F360I: variant of CyPPO19 PPO protein (SEQ ID NO: 1) (protein)", "chain": "B1 chain with T327L, I408W", "modifications": "Synthetic_PPO of Thermosynechococcus elongatus PKUAC-SCTE542 (comprising GenBank No. CP032152.1)"}, "B6": {"name": "CyPPO19 V305M + I408W + F360I: variant of CyPPO19 PPO protein (SEQ ID NO: 1) (protein)", "chain": "B1 chain with C167A, V305M, T327L, I408W", "modifications": "Synthetic_PPO of Thermosynechococcus elongatus PKUAC-SCTE542 (comprising GenBank No. CP032152.1)"}, "B7": {"name": "CyPPO19 A167L + I408R + F360L: variant of CyPPO19 PPO protein (SEQ ID NO: 1) (protein)", "chain": "B1 chain with C167L, T327L, I360L, I408R", "modifications": "Synthetic_PPO of Thermosynechococcus elongatus PKUAC-SCTE542 (comprising GenBank No. CP032152.1)"}, "B8": {"name": "CyPPO19 V305L + L327T + F360V: variant of CyPPO19 PPO protein (SEQ ID NO: 1) (protein)", "chain": "B1 chain with C167A, V305L, I360V", "modifications": "Synthetic_PPO of Thermosynechococcus elongatus PKUAC-SCTE542 (comprising GenBank No. CP032152.1)"}, "B9": {"name": "CyPPO19 V305M + L327T + F360I: variant of CyPPO19 PPO protein (SEQ ID NO: 1) (protein)", "chain": "B1 chain with C167A, V305M", "modifications": "Synthetic_PPO of Thermosynechococcus elongatus PKUAC-SCTE542 (comprising GenBank No. CP032152.1)"}, "B10": {"name": "CyPPO19 V305M + L327T + F360T: variant of CyPPO19 PPO protein (SEQ ID NO: 1) (protein)", "chain": "B1 chain with C167A, V305M, I360T", "modifications": "Synthetic_PPO of Thermosynechococcus elongatus PKUAC-SCTE542 (comprising GenBank No. CP032152.1)"}}, "note": "Changes are numbered by the printed parent chain. Names may count otherwise."}
{"tested_on": "PPO-deficient BT3 E. coli (ΔPPO)", "experiment": "PPO-inhibiting herbicide tolerance test of PPO variants in E. coli (growth on herbicide-containing LB agar)", "assay_type": "cell-based", "settings": "CyPPO19 variants in BT3 (ΔPPO) E. coli; LB agar with 0 to 2,000 μM herbicide, 37° C., dark, 16-20 hours", "procedure,_shortened": "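Tolerance was scored against wild-type enzyme: '−' for equal growth, one '+' per 10-fold gain, up to '+++++'. ΔPPO BT3 cells carrying variant plasmids, spotted as a 10-fold dilution series from OD600=0.5, grew 16-20 h at 37° C. in the dark on ampicillin LB agar containing 0 to 2,000 μM herbicide.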"}
{"molecule": "B1", "tolerance level relative to wild type, Carfentrazone": "+ (‘+’ per each 10-fold resistance)", "tolerance level relative to wild type, Flumioxazin": "++++ (‘+’ per each 10-fold resistance)", "tolerance level relative to wild type, Fomesafen": "++ (‘+’ per each 10-fold resistance)", "tolerance level relative to wild type, Oxyfluorfen": "+++ (‘+’ per each 10-fold resistance)", "tolerance level relative to wild type, Saflufenacil": "+++ (‘+’ per each 10-fold resistance)", "tolerance level relative to wild type, Sulfentrazone": "++++ (‘+’ per each 10-fold resistance)", "tolerance level relative to wild type, Tiafenacil": "++++ (‘+’ per each 10-fold resistance)"}
{"molecule": "B2", "tolerance level relative to wild type, Carfentrazone": "+ (‘+’ per each 10-fold resistance)", "tolerance level relative to wild type, Flumioxazin": "++++ (‘+’ per each 10-fold resistance)", "tolerance level relative to wild type, Fomesafen": "+ (‘+’ per each 10-fold resistance)", "tolerance level relative to wild type, Oxyfluorfen": "++ (‘+’ per each 10-fold resistance)", "tolerance level relative to wild type, Saflufenacil": "++++ (‘+’ per each 10-fold resistance)", "tolerance level relative to wild type, Sulfentrazone": "+++ (‘+’ per each 10-fold resistance)", "tolerance level relative to wild type, Tiafenacil": "++++ (‘+’ per each 10-fold resistance)"}
{"molecule": "B3", "tolerance level relative to wild type, Carfentrazone": "+ (‘+’ per each 10-fold resistance)", "tolerance level relative to wild type, Flumioxazin": "+++++ (until ‘+++++’ as maximal resistance)", "tolerance level relative to wild type, Fomesafen": "+++ (‘+’ per each 10-fold resistance)", "tolerance level relative to wild type, Oxyfluorfen": "+++ (‘+’ per each 10-fold resistance)", "tolerance level relative to wild type, Saflufenacil": "+++++ (until ‘+++++’ as maximal resistance)", "tolerance level relative to wild type, Sulfentrazone": "+++++ (until ‘+++++’ as maximal resistance)", "tolerance level relative to wild type, Tiafenacil": "+++++ (until ‘+++++’ as maximal resistance)"}
{"molecule": "B4", "tolerance level relative to wild type, Carfentrazone": "+ (‘+’ per each 10-fold resistance)", "tolerance level relative to wild type, Flumioxazin": "+++++ (until ‘+++++’ as maximal resistance)", "tolerance level relative to wild type, Fomesafen": "+++ (‘+’ per each 10-fold resistance)", "tolerance level relative to wild type, Oxyfluorfen": "+++ (‘+’ per each 10-fold resistance)", "tolerance level relative to wild type, Saflufenacil": "+++++ (until ‘+++++’ as maximal resistance)", "tolerance level relative to wild type, Sulfentrazone": "+++++ (until ‘+++++’ as maximal resistance)", "tolerance level relative to wild type, Tiafenacil": "+++++ (until ‘+++++’ as maximal resistance)"}
{"molecule": "B5", "tolerance level relative to wild type, Carfentrazone": "+ (‘+’ per each 10-fold resistance)", "tolerance level relative to wild type, Flumioxazin": "+++++ (until ‘+++++’ as maximal resistance)", "tolerance level relative to wild type, Fomesafen": "+++ (‘+’ per each 10-fold resistance)", "tolerance level relative to wild type, Oxyfluorfen": "+++ (‘+’ per each 10-fold resistance)", "tolerance level relative to wild type, Saflufenacil": "+++++ (until ‘+++++’ as maximal resistance)", "tolerance level relative to wild type, Sulfentrazone": "+++++ (until ‘+++++’ as maximal resistance)", "tolerance level relative to wild type, Tiafenacil": "+++++ (until ‘+++++’ as maximal resistance)"}
{"molecule": "B6", "tolerance level relative to wild type, Carfentrazone": "+ (‘+’ per each 10-fold resistance)", "tolerance level relative to wild type, Flumioxazin": "+++++ (until ‘+++++’ as maximal resistance)", "tolerance level relative to wild type, Fomesafen": "+++ (‘+’ per each 10-fold resistance)", "tolerance level relative to wild type, Oxyfluorfen": "+++ (‘+’ per each 10-fold resistance)", "tolerance level relative to wild type, Saflufenacil": "+++++ (until ‘+++++’ as maximal resistance)", "tolerance level relative to wild type, Sulfentrazone": "+++ (‘+’ per each 10-fold resistance)", "tolerance level relative to wild type, Tiafenacil": "+++++ (until ‘+++++’ as maximal resistance)"}
{"molecule": "B7", "tolerance level relative to wild type, Carfentrazone": "+ (‘+’ per each 10-fold resistance)", "tolerance level relative to wild type, Flumioxazin": "++++ (‘+’ per each 10-fold resistance)", "tolerance level relative to wild type, Fomesafen": "+++ (‘+’ per each 10-fold resistance)", "tolerance level relative to wild type, Oxyfluorfen": "+++ (‘+’ per each 10-fold resistance)", "tolerance level relative to wild type, Saflufenacil": "++++ (‘+’ per each 10-fold resistance)", "tolerance level relative to wild type, Sulfentrazone": "++++ (‘+’ per each 10-fold resistance)", "tolerance level relative to wild type, Tiafenacil": "++++ (‘+’ per each 10-fold resistance)"}
{"molecule": "B8", "tolerance level relative to wild type, Carfentrazone": "+ (‘+’ per each 10-fold resistance)", "tolerance level relative to wild type, Flumioxazin": "+++++ (until ‘+++++’ as maximal resistance)", "tolerance level relative to wild type, Fomesafen": "+ (‘+’ per each 10-fold resistance)", "tolerance level relative to wild type, Oxyfluorfen": "+++ (‘+’ per each 10-fold resistance)", "tolerance level relative to wild type, Saflufenacil": "+++ (‘+’ per each 10-fold resistance)", "tolerance level relative to wild type, Sulfentrazone": "++ (‘+’ per each 10-fold resistance)", "tolerance level relative to wild type, Tiafenacil": "+++++ (until ‘+++++’ as maximal resistance)"}
{"molecule": "B9", "tolerance level relative to wild type, Carfentrazone": "+ (‘+’ per each 10-fold resistance)", "tolerance level relative to wild type, Flumioxazin": "++++ (‘+’ per each 10-fold resistance)", "tolerance level relative to wild type, Fomesafen": "+ (‘+’ per each 10-fold resistance)", "tolerance level relative to wild type, Oxyfluorfen": "++ (‘+’ per each 10-fold resistance)", "tolerance level relative to wild type, Saflufenacil": "++ (‘+’ per each 10-fold resistance)", "tolerance level relative to wild type, Sulfentrazone": "++ (‘+’ per each 10-fold resistance)", "tolerance level relative to wild type, Tiafenacil": "++++ (‘+’ per each 10-fold resistance)"}
{"molecule": "B10", "tolerance level relative to wild type, Carfentrazone": "+ (‘+’ per each 10-fold resistance)", "tolerance level relative to wild type, Flumioxazin": "+++ (‘+’ per each 10-fold resistance)", "tolerance level relative to wild type, Fomesafen": "++ (‘+’ per each 10-fold resistance)", "tolerance level relative to wild type, Oxyfluorfen": "++ (‘+’ per each 10-fold resistance)", "tolerance level relative to wild type, Saflufenacil": "+++ (‘+’ per each 10-fold resistance)", "tolerance level relative to wild type, Sulfentrazone": "+++ (‘+’ per each 10-fold resistance)", "tolerance level relative to wild type, Tiafenacil": "+++ (‘+’ per each 10-fold resistance)"}
